Reference: the nanobody polyreactivity screen of Harvey et al. (2022)

Assay: yeast display, Sf9 membrane polyspecificity reagent, FACS + sequencing; frameworks hold sequencing errors
How it was run: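 Galactose-induced (36–48 hours) yeast carrying a synthetic nanobody display library were exposed to 10% biotinylated, detergent-solubilized Sf9 membrane reagent at 4 °C for 1 hour. FACS followed streptavidin microbead enrichment, using low and high (top ~1%) gates for expression (anti-HA) and reagent binding (streptavidin). Colony PCR, MiSeq 2 × 250 sequencing and CDR-length filtering followed. Labels for polyreactivity reflect the gate of origin.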

| Sequence | polyreactivity (PSR sort gate) |
| --- | --- |
| QVQLVESGGGLVQAGGSLRLSSAASGRIFIRNAMGWYRQAPGKERELVAAISWSGGRTYYADSVKGRFTISRDNAKNTVYLQMNSLKPEDTAVYYCAALRYAFQYGLSYYWGQGTQVTVSS | high polyreactivity |
| QVQLVESGGGLVQAGGSLRLSSAASGRIFKKNSMGWYRQAPGKERELVAAINWTGGSTYYADSVKGRFTISRDNAMNTVYLQLNSLKPEDTAFYYCAVGVYPSYRGPTFSTRRDYWGQGTQVTVSS | low polyreactivity |
| QVQLVESGGGLVQAGGSLRLSSAASGRIFKYYVMGWYRQAPGKEREFVAAISGRGGRTYYADSVKGRFTISRDNAKNTVYLQMNSLKPEDTAVYYCATERQDRGPLGYNYWGQGTQVTVSS | high polyreactivity |
| QVQLVESGGGLVQAGGSLRLSSAASGRIFRKYAMGWYRQAPGKERELVAAISGSGVSTYYADSVKGRFTISRDNAKNTVYLQMNSLKPEDTAVYYCNARIILRGYKSYRYDYWGQGTQVTVSS | high polyreactivity |
| QVQLVESGGGLVQAGGSLRLSSAASGRIFSINAMGWYSQAPGKERELVATISWRGGSTYYADSVKGRFTISRDNAKNTVYLQMNSLKPEDTAVYYCAAKYPYYSSYAYGYWGQGTQVTVSS | high polyreactivity |
| QVQLVESGGGLVQAGGSLRLSSAASGRIFTYYTMGWSRQAPGKERELVAAISARGGNTYYADSVKGRFTISRDNAKNTVYLQMNSLKPEDTAVYYCAAGWVTSRTYYTHQIRNPLDYWGQGTQVTVSS | high polyreactivity |
| QVQLVESGGGLVQAGGSLRLSSAASGRIFYGYTMGWYRQAPGKERELVAAITQSSGSTYYADSVKGRFTISRDNAKNTVYLQMNSLKPEDTAVYYCARDPGRRYSYTYDYWGQGTQVTVSS | low polyreactivity |
| QVQLVESGGGLVQAGGSLRLSSAASGRIFYLNAMGWYRQAPGIERELVAAINTSGDSTYYADSVKGRFTISRDNAKNTVYLQMNSLKPEDTEVYYCAAYVIGPDHFIYDYWGQGTQVTVSS | low polyreactivity |
| QVQLVESGGGLVQAGGSLRLSSAASGRILKYYAMGWYRQAPGKERELVAAIGSGGSTYYADSVKGRFTISRDNAKNTVYLQMNSLKPDDTAVYYCNAEDQWGGYGYDYWGQGTQLTVSS | low polyreactivity |
| QVQLVESGGGLVQAGGSLRLSSAASGRILPVNTMGWYRQAPGKERELVAVITRSGGRTYYADSVKGRFTISRDYAKNTVYLQMNSLKPEDTAVYYCAADVGFRWYRYTAGPLEYDYWGQGTQVTVSS | high polyreactivity |
| QVQLVESGGGLVQAGGSLRLSSAASGRILQFNAMGWYRQAPGKDRELVAAITSGGSTNYADSVKGRFTISRDNAKNTVYLQMNSLKPEVTAVYYCAAQSLLWQRRLRGYYYWGQGTQVTVSS | high polyreactivity |
| QVQLVESGGGLVQAGGSLRLSSAASGRISQNAIGWYRQAPGKERELVAAITFSGGSTYYADSVKGRFTISRDNAKNTVFLQMNSLKPEDTAVYYCAAEDRPLYWRFPDEMDYWGQGTQVTVSS | low polyreactivity |
| QVQLVESGGGLVQAGGSLRLSSAASGRLFGLNALGWYRQAPGKERELVASSTYSGGSTYYADSVKGRFTISRDNAKNTVYLQMNSLKQEDTAVYYCAGDSWYYWYSTYDYWGQGTQETVSS | high polyreactivity |
| QVQLVESGGGLVQAGGSLRLSSAASGRTFAYYAMGWYRQAPGKERELVAAISSAGRTYYADSVKGRFTISRDNAKNTVYLQMNSLKTEDTAVYYCAAEWYYYVIWLYEYWGQGTQVTVSS | high polyreactivity |
| QVQLVESGGGLVQAGGSLRLSSAASGRTFGRYAMGWYRQAPGKERELVAAITRSGSSTYYADSVKGRFTISRDNAKNTVYLQMNSLKPEDTAVYYCAALYGPFYSTGEYWGQGTQVTVSS | high polyreactivity |
| QVQLVESGGGLVQAGGSLRLSSAASGRTFGYNAMGWYRPATGKERELVAAISWSGARTYYADSVKGRFTISRDIAKNTVYLQLNSLTPEDTAVYYCAAGIDGYYWPFFRNYDYWGQGTQVTVSS | high polyreactivity |
| QVQLVESGGGLVQAGGSLRLSSAASGRTFLRYAMGWYRQAPGKVRELVAAISWSGGRTYYADSVKGRFRISRDLAKNTVYLQMNSLKTEVTAVYYCNKGVLYGAHFYYWGQGTQVTGSS | high polyreactivity |
| QVQLVESGGGLVQAGGSLRLSSAASGRTFPHYAMGWYRQAPGKERELVAAISSSGGSTYYADSVKGRFTISRDNAKNTVYLQMNSLKPEETAVYSCAARYVDDGWKYAYWGQGTQVTVSS | low polyreactivity |
| QVQLVESGGGLVQAGGSLRLSSAASGRTFRPNAMGGYRQAPGKERELVAGITRGGSTKYADSVKGRFTISRDNSKNTVYLQMNSLKPEDTAVYYCAVERGSYSYDRPFYYCGQGTQVTVSS | high polyreactivity |
| QVQLVESGGGLVQAGGSLRLSSAASGRTFRWYTMGWYRQAPGKERELVAAISYSGGRTYYADSVKGRFTISRDNAKNTVYLQMNSLKPEDTAVYYCNKRGPSYWRYVETSEYYYWGQGTQVTVSS | high polyreactivity |
| QVQLVESGGGLVQAGGSLRLSSAASGRTFWVYAMGCYRQAPGKESELVAAISRSGVSTYYADSVMGRFTISRDNAKNTVYLQMNSLKPEDTAVYYCAAPLIYTPLKYHYWGQGTQVTVSS | low polyreactivity |
| QVQLVESGGGLVQAGGSLRLSSAASGRTFYKYAMGWYRQAPGKERELVAAISWNGGSTYYADSVKGRFTISRDNAKNTVYLQMNSLKPEDTAVYYCNVVNQRSRTGDYWGQGTQVTVSS | high polyreactivity |
| QVQLVESGGGLVQAGGSLRLSSAASGRTIDGNAMVWYRQAPGKEREWVATITRGGSTYYADSVKGRFTISRDNAKNTVYLQMNSLKPEDTSVYYCAARYYGRSQHHFDYWGQGTQVTVSS | high polyreactivity |
| QVQLVESGGGLVQAGGSLRLSSAASGRTLAGYAMGWYRQAPGKERELVAAISRSGGRTYYADSVKGRFTISRDNAKNSVYLQMNSLKPEDTAVYYCAADTRIEVYYWGQGTQVTVSS | high polyreactivity |
| QVQLVESGGGLVQAGGSLRLSSAASGSIFSTNEMGCYRQAPGKERELVAAISVSGGSTYYADSVKGRFTISRDNAKNTVYLQMNSLKPEDTALYYCNADYTRGTMYYWGQGTQVTVSS | low polyreactivity |
| QVQLVESGGGLVQAGGSLRLSSAASGSIFTYYAMGGYRQAPGKEREFVAGISWSGGRTYYADSVKARFTISRDNAKNTGYLQMNSLKPEDTAVYYCNRQYRYIPSPFDYGGQGTQVTVSS | low polyreactivity |
| QVQLVESGGGLVQAGGSLRLSSAASGSIFVRNAMGWYRQAPGKERELVAAITSRVGSTYYADSVKGRFTISRDNAKNTVYLQMNSLKPEDTAVYYCAVVFAKRAWSRYDYWGQGTQVTVSS | high polyreactivity |
| QVQLVESGGGLVQAGGSLRLSSAASGSIFYPYAMGWYRQAPGKARELVSTISWRGGSTYYADSVKGRFTISRDNAKNTDYVQMNRLKPEVTAVYYCAARKRPYSVINGMDYWGQGTQVTVSS | low polyreactivity |
| QVQLVESGGGLVQAGGSLRLSSAASGSIFYYYSMGWYRQAPGKERELVAAITRSGGSTYYADSVKGLFTISRDNAKNTVYLQMNSQKPEDTAVYYCAKDAHAYRDLDYWGQGTQVTVSS | low polyreactivity |
| QVQLVESGGGLVQAGGSLRLSSAASGSILYVYAMGWYRQAPGKERELVAVITSGGSTNYADSVKGRFTISRDNAKNTVYLQMNSLKPEDTAVYYCAADPYSVYGGDYWGQGTQVTVSS | low polyreactivity |
